Test results: patent publication US20040152193A1 (LUDWIG INSTITUTE FOR CANCER RESEARCH, published 2004)

How the values were obtained:
HLA-A*0201 [1] = molecular target: HLA-A*0201 (human); test: cell-based or functional assay
HLA-A*0201 [2] = molecular target: HLA-A*0201 (human); test: cell-based or functional assay; remark: listed apart in the source

| Binder | Relative Competitor Activity, Exp3 (HLA-A*0201 [1]) | Competitor [µM] 50% (HLA-A*0201 [2]) | Relative competitor activity (HLA-A*0201 [2]) |
| --- | --- | --- | --- |
| ILTVILGVL [Melan-A 32-40 nonapeptide ILTVILGVL] | 2 ratio to SEQ ID NO: 2 |  |  |
| EVDPIGHLY [MAGE-3 TRAP 168-176 peptide EVDPIGHLY] |  | > 100 µM | < 0.6 ratio to SEQ ID NO: 2 |
